Results taken from paper PMC3053351.

Columns and labels:
Test in all cases: flow cytometry on cells
[1] = target: Mamu-KIR3DL05*003 (rhesus macaque)
[2] = target: Mamu-KIR3DL05*005 (rhesus macaque)
[3] = target: Mamu-KIR3DL05*008 (rhesus macaque)
[4] = target: Mamu-KIR3DL05*010 (rhesus macaque)
[5] = target: Mamu-KIR3DL05*001 (rhesus macaque)
[6] = target: Mamu-KIR3DL05*004 (rhesus macaque)

Substance | MFI of tetramer staining divided by MFI of HA staining [1] | MFI of tetramer staining divided by MFI of HA staining [2] | MFI of tetramer staining divided by MFI of HA staining [3] | MFI of tetramer staining divided by MFI of HA staining [4] | MFI of tetramer staining divided by MFI of HA staining [5] | MFI of tetramer staining divided by MFI of HA staining [6]
Mamu-A1*00201 tetramer folded with SIV Env_(788-795) RY8 (from UniProt P61769 21-119) (peptide-MHC) | 0.06 | 0.03 | 0.07 | 0.07 | – | –
Mamu-A1*00201 tetramer folded with SIV Gag_(71-79) GY9 (from UniProt P61769 21-119) (peptide-MHC) | 1.57 | 0.55 | 1.49 | 1.55 | 0.02 | 1.99
Mamu-A1*00201 tetramer folded with SIV Nef_(159-167) YY9 (from UniProt P61769 21-119) (peptide-MHC) | 0.03 | 0.01 | 0.03 | 0.03 | – | 0.13
